# Test results reported in patent US20260009052, “CAS12 PROTEINS AND USES THEREOF” (GUANGZHOU REFORGENE MEDICINE CO., LTD., published 2026).
# T1: C12-279 Mut-02-1-5-426-858-860 (synthetic construct, I1R,L5R,Q186R,D352R,D426R,858R,L860R)
# T1 chain: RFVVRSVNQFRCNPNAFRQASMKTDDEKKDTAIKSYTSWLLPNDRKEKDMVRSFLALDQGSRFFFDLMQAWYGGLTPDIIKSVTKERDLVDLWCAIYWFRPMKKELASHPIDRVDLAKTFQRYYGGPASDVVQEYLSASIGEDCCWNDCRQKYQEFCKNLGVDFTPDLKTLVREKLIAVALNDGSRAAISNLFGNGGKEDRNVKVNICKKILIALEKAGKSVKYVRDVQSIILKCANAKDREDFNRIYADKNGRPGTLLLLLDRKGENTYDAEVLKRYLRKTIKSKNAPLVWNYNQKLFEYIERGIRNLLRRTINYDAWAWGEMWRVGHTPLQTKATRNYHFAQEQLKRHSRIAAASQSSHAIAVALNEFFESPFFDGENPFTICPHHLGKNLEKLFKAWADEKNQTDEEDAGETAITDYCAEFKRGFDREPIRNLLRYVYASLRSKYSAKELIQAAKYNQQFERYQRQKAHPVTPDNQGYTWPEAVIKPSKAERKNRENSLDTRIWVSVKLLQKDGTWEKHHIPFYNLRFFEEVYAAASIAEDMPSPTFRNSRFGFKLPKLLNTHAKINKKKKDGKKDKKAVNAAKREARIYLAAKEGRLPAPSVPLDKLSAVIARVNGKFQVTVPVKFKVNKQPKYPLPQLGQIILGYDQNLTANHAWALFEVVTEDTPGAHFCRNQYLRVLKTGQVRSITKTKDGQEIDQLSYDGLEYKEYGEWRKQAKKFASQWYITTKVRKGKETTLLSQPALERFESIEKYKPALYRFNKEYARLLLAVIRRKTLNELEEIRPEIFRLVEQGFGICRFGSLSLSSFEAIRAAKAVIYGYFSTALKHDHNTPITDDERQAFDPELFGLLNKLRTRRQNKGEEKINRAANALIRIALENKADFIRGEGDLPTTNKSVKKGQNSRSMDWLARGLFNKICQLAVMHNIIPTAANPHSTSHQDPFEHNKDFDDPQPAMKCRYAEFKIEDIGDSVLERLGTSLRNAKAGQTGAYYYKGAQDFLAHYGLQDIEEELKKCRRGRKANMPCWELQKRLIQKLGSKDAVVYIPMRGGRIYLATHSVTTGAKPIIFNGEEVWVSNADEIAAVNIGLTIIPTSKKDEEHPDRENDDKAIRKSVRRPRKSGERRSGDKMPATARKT
# T2: C12-279 Mut-02 (synthetic construct, Q186R,D352R)
# T2 chain: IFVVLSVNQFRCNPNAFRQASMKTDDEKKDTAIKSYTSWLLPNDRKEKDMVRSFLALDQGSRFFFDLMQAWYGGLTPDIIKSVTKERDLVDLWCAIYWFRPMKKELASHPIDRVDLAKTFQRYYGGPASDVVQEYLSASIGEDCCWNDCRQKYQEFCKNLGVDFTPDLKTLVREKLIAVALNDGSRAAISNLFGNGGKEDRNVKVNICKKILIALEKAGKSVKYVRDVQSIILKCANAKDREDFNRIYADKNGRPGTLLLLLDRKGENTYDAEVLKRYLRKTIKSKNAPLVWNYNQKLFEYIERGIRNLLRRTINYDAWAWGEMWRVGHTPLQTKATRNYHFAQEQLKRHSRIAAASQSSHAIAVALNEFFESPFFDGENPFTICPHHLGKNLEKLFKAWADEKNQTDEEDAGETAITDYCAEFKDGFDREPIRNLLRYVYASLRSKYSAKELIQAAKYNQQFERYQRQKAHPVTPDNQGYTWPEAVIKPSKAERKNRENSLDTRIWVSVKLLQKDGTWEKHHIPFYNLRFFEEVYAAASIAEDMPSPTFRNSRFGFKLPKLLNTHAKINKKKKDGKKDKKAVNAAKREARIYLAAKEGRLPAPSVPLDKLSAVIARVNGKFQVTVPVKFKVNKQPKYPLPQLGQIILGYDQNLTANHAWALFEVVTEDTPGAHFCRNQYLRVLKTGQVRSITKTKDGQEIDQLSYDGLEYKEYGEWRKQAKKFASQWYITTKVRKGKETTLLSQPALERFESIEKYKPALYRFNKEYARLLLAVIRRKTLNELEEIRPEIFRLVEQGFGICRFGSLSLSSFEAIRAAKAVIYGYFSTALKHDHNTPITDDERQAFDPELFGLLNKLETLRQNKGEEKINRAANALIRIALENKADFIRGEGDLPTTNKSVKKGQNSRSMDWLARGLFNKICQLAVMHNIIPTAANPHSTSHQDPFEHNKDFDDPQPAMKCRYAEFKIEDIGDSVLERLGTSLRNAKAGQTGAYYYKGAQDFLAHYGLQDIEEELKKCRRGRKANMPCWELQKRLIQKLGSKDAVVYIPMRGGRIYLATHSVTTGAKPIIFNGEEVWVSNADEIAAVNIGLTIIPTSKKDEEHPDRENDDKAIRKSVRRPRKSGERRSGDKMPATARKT
# B1: C12-279 Reporter3 sgRNA ; Reporter3 target (ssRNA ; dsDNA)
# RNA: GUAAUGCGUCUCCCAUUGACGCCUCACCUCGCGACGCAAUGAUG
# DNA 1: CTCACCTCGCGACGCAATGATG
# DNA 2: CATCATTGCGTCGCGAGGTGAG
# Tests used:
# [1] = molecular target: T1, C12-279 Mut-02-1-5-426-858-860; assay: cell_activity; PAM TTG
# C12-279 Mut-02 = molecular target: T2, C12-279 Mut-02; assay: cell_activity; PAM TTG; +/-0.25
# Method: Transfection: transfection was performed 12-14 h after plating. 1.5 μL PEI (Yeasen Biotechnology, 40815ES03, Polyethylenimine Linear (PEI) MW25000) and 500 ng mutation clone plasmid were added to 100 μL Opti-MEM per well of the 24-well plate, mixed, and added to the NAAN cell line for cell transfection after placing at room temperature for 20 min. After overnight transfection, a fresh culture medium was replaced, and the culture was continued for 72 h, followed by flow cytometry. Editing efficiencies of different mutant clones were characterized by the proportion of GFP-positive cells.
# Editing efficiency of some selected mutants was tested in Reporter3 cell line using the same manner as described for the NAAN reporter system, except that the cell line was changed from NAAN cell line to Reporter3 cell line.
binder,measurement,setting,value
B1,binding signal,[1],3.77 fold of C12-279
same,binding signal,C12-279 Mut-02,1.39 fold of C12-279
